Source: US20210246166A1 (Bayer, published 2021)
Numbered stars: 1 amine (or outer) side, 2 acyl side, 3 side chain; on linkers, the order of the positions; unused ones are H or OH. Bridge positions count the residues as written; N and C are the ends. Square brackets hold non-standard residues; d marks the D form. Ends that are not written are not given here. Freidinger's Lactam = (2S)-2-[(3R)-3-amino-2-oxopyrrolidin-1-yl]-4-methylpentanoic acid (Freidinger's lactam), CC(C)C[C@@H](C(=O)[*:2])N1CC[C@@H](N[*:1])C1=O; X13 = (2S)‑2‑amino‑3‑(1-methylcyclopropyl)propanoic acid, CC1(C[C@H](N[*:1])C(=O)[*:2])CC1; (R)‑Pyrrolidine‑3‑acetic acid = O=C(C[C@H]1CCN([*:1])C1)[*:2]; Ida = iminodiacetic acid, O=C(CN(CC(=O)[*:3])[*:1])[*:2]; Phe(2,5-diF) = O=C([C@H](Cc1cc(F)ccc1F)N[*:1])[*:2]; Pro(3S,4R-methano) = O=C(O)[C@H]1NC[C@@H]2C[C@@H]21; Pro(cis-4-CF3) = O=C(O)[C@@H]1C[C@H](C(F)(F)F)CN1; Pro(4-spirocPr) = O=C(O)[C@@H]1CC2(CC2)CN1; Oic = O=C(O)[C@@H]1C[C@@H]2CCCC[C@@H]2N1; tBuAla = CC(C)(C)C[C@H](N)C(=O)O; Pen = CC(C)(S)[C@H](N)C(=O)O; Sar = CNCC(=O)O

B1: aIC+SRS-((tBu)A)-P-((6S)-5-Azaspiro[2.4]heptane-6-carboxylic acid)-I-(Pen)+IPD-OH (peptide)
peptide: [dA]ICSRS[tBuAla]P[Pro(4-spirocPr)]I[Pen]IPD-OH
modifications: disulfide 3-11; N-terminus assumed
SMILES: CC[C@H](C)[C@H](NC(=O)[C@@H](C)N)C(=O)N[C@H]1CSSC(C)(C)[C@@H](C(=O)N[C@H](C(=O)N2CCC[C@H]2C(=O)N[C@@H](CC(=O)O)C(=O)O)[C@@H](C)CC)NC(=O)[C@H]([C@@H](C)CC)NC(=O)[C@@H]2CC3(CC3)CN2C(=O)[C@@H]2CCCN2C(=O)[C@H](CC(C)(C)C)NC(=O)[C@H](CO)NC(=O)[C@H](CCCNC(=N)N)NC(=O)[C@H](CO)NC1=O
B2: ((N-Me)G)-IC+SRSLP-(Oic)-I-(Pen)+IP-(Freidinger's Lactam)-OH (peptide)
peptide: [Sar]ICSRSLP[Oic]I[Pen]IP[Freidinger's Lactam]-OH
modifications: disulfide 3-11; N-terminus assumed
SMILES: CC[C@H](C)[C@H](NC(=O)CNC)C(=O)N[C@H]1CSSC(C)(C)[C@@H](C(=O)N[C@H](C(=O)N2CCC[C@H]2C(=O)N[C@@H]2CCN([C@@H](CC(C)C)C(=O)O)C2=O)[C@@H](C)CC)NC(=O)[C@H]([C@@H](C)CC)NC(=O)[C@@H]2C[C@@H]3CCCC[C@@H]3N2C(=O)[C@@H]2CCCN2C(=O)[C@H](CC(C)C)NC(=O)[C@H](CO)NC(=O)[C@H](CCCNC(=N)N)NC(=O)[C@H](CO)NC1=O
B3: aIC+SRS-((tBu)A)-P-((6S)-5-Azaspiro[2.4]heptane-6-carboxylic acid)-I-(Pen)+IPe-OH (peptide)
peptide: [dA]ICSRS[tBuAla]P[Pro(4-spirocPr)]I[Pen]IP[dE]-OH
modifications: disulfide 3-11; N-terminus assumed
SMILES: CC[C@H](C)[C@H](NC(=O)[C@@H](C)N)C(=O)N[C@H]1CSSC(C)(C)[C@@H](C(=O)N[C@H](C(=O)N2CCC[C@H]2C(=O)N[C@H](CCC(=O)O)C(=O)O)[C@@H](C)CC)NC(=O)[C@H]([C@@H](C)CC)NC(=O)[C@@H]2CC3(CC3)CN2C(=O)[C@@H]2CCCN2C(=O)[C@H](CC(C)(C)C)NC(=O)[C@H](CO)NC(=O)[C@H](CCCNC(=N)N)NC(=O)[C@H](CO)NC1=O
B4: ((N-Me)G)-IC+SRS-((tBu)A)-P-((1S,2S,5R)-3-azabicyclo[3.1.0]hexane-2-carboxylic acid)-I-(Pen)+IPD-OH (peptide)
peptide: [Sar]ICSRS[tBuAla]P[Pro(3S,4R-methano)]I[Pen]IPD-OH
modifications: disulfide 3-11; N-terminus assumed
SMILES: CC[C@H](C)[C@H](NC(=O)CNC)C(=O)N[C@H]1CSSC(C)(C)[C@@H](C(=O)N[C@H](C(=O)N2CCC[C@H]2C(=O)N[C@@H](CC(=O)O)C(=O)O)[C@@H](C)CC)NC(=O)[C@H]([C@@H](C)CC)NC(=O)[C@@H]2[C@H]3C[C@H]3CN2C(=O)[C@@H]2CCCN2C(=O)[C@H](CC(C)(C)C)NC(=O)[C@H](CO)NC(=O)[C@H](CCCNC(=N)N)NC(=O)[C@H](CO)NC1=O
B5: ((N-Me)G)-IC+SRS-((2S)-2-amino-3-(1-methylcyclopropyl)propanoic acid)-P-(Oic)-I-(Pen)+IPD-OH (peptide)
peptide: [Sar]ICSRS[X13]P[Oic]I[Pen]IPD-OH
modifications: disulfide 3-11; N-terminus assumed
SMILES: CC[C@H](C)[C@H](NC(=O)CNC)C(=O)N[C@H]1CSSC(C)(C)[C@@H](C(=O)N[C@H](C(=O)N2CCC[C@H]2C(=O)N[C@@H](CC(=O)O)C(=O)O)[C@@H](C)CC)NC(=O)[C@H]([C@@H](C)CC)NC(=O)[C@@H]2C[C@@H]3CCCC[C@@H]3N2C(=O)[C@@H]2CCCN2C(=O)[C@H](CC2(C)CC2)NC(=O)[C@H](CO)NC(=O)[C@H](CCCNC(=N)N)NC(=O)[C@H](CO)NC1=O
B6: ((N-Me)G)-FC+TRK-((tBu)A)-(Pen)+YPD-OH (peptide)
peptide: [Sar]FCTRK[tBuAla][Pen]YPD-OH
modifications: disulfide 3-8; N-terminus assumed
SMILES: CNCC(=O)N[C@@H](Cc1ccccc1)C(=O)N[C@H]1CSSC(C)(C)[C@@H](C(=O)N[C@@H](Cc2ccc(O)cc2)C(=O)N2CCC[C@H]2C(=O)N[C@@H](CC(=O)O)C(=O)O)NC(=O)[C@H](CC(C)(C)C)NC(=O)[C@H](CCCCN)NC(=O)[C@H](CCCNC(=N)N)NC(=O)[C@H]([C@@H](C)O)NC1=O
B7: ((N-Me)G)-IC+SRS-((2,5-Difluoro)F)-PPI-(Pen)+IPe-OH (peptide)
peptide: [Sar]ICSRS[Phe(2,5-diF)]PPI[Pen]IP[dE]-OH
modifications: disulfide 3-11; N-terminus assumed
SMILES: CC[C@H](C)[C@H](NC(=O)CNC)C(=O)N[C@H]1CSSC(C)(C)[C@@H](C(=O)N[C@H](C(=O)N2CCC[C@H]2C(=O)N[C@H](CCC(=O)O)C(=O)O)[C@@H](C)CC)NC(=O)[C@H]([C@@H](C)CC)NC(=O)[C@@H]2CCCN2C(=O)[C@@H]2CCCN2C(=O)[C@H](Cc2cc(F)ccc2F)NC(=O)[C@H](CO)NC(=O)[C@H](CCCNC(=N)N)NC(=O)[C@H](CO)NC1=O
B8: ((N-Me)G)-IC+SRSLP-(Oic)-I-(Pen)+IP-((R)-Pyrrolidine-3-acetic acid)-OH (peptide)
peptide: [Sar]ICSRSLP[Oic]I[Pen]IP[(R)‑Pyrrolidine‑3‑acetic acid]-OH
modifications: disulfide 3-11; N-terminus assumed
SMILES: CC[C@H](C)[C@H](NC(=O)CNC)C(=O)N[C@H]1CSSC(C)(C)[C@@H](C(=O)N[C@H](C(=O)N2CCC[C@H]2C(=O)N2CC[C@H](CC(=O)O)C2)[C@@H](C)CC)NC(=O)[C@H]([C@@H](C)CC)NC(=O)[C@@H]2C[C@@H]3CCCC[C@@H]3N2C(=O)[C@@H]2CCCN2C(=O)[C@H](CC(C)C)NC(=O)[C@H](CO)NC(=O)[C@H](CCCNC(=N)N)NC(=O)[C@H](CO)NC1=O
B9: AIC+SRS-((tBu)A)-P-((4-CF3)P)-IC+IPD-OH (peptide)
peptide: AICSRS[tBuAla]P[Pro(cis-4-CF3)]ICIPD-OH
modifications: disulfide 3-11; N-terminus assumed
SMILES: CC[C@H](C)[C@H](NC(=O)[C@H](C)N)C(=O)N[C@H]1CSSC[C@@H](C(=O)N[C@H](C(=O)N2CCC[C@H]2C(=O)N[C@@H](CC(=O)O)C(=O)O)[C@@H](C)CC)NC(=O)[C@H]([C@@H](C)CC)NC(=O)[C@@H]2C[C@H](C(F)(F)F)CN2C(=O)[C@@H]2CCCN2C(=O)[C@H](CC(C)(C)C)NC(=O)[C@H](CO)NC(=O)[C@H](CCCNC(=N)N)NC(=O)[C@H](CO)NC1=O
B10: ((N-Me)G)-IC+SRS-((2,5-Difluoro)F)-PPI-(Pen)+IPDd-OH (peptide)
peptide: [Sar]ICSRS[Phe(2,5-diF)]PPI[Pen]IPD[dD]-OH
modifications: disulfide 3-11; N-terminus assumed
SMILES: CC[C@H](C)[C@H](NC(=O)CNC)C(=O)N[C@H]1CSSC(C)(C)[C@@H](C(=O)N[C@H](C(=O)N2CCC[C@H]2C(=O)N[C@@H](CC(=O)O)C(=O)N[C@H](CC(=O)O)C(=O)O)[C@@H](C)CC)NC(=O)[C@H]([C@@H](C)CC)NC(=O)[C@@H]2CCCN2C(=O)[C@@H]2CCCN2C(=O)[C@H](Cc2cc(F)ccc2F)NC(=O)[C@H](CO)NC(=O)[C@H](CCCNC(=N)N)NC(=O)[C@H](CO)NC1=O
B11: pIC+SRSLP-(Oic)-I-(Pen)+IP-(Ida)-OH (HCl salt) (peptide)
peptide: [dP]ICSRSLP[Oic]I[Pen]IP[Ida]-OH
modifications: disulfide 3-11; also: HCl salt

What follows are binders tested against T1, Recombinant human MASP1 enzyme (fragment corresponding to amino acids 297-699, C-terminal His Tag) (human, UniProt P48740 297-699) (assay: cell-based or functional assay).
T1 sequence: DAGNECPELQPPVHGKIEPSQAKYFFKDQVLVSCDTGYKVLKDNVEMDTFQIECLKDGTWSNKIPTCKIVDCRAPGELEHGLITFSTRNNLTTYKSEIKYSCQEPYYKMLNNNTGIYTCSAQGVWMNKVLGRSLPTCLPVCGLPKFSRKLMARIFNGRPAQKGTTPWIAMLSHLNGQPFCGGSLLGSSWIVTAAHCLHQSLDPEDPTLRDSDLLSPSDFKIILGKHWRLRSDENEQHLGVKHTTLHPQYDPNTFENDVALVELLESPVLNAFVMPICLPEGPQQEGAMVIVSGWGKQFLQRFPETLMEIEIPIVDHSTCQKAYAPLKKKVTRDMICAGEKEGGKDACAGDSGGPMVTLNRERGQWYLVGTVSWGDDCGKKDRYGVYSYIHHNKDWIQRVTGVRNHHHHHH

Binder	human MASP1 IC50
B1	4.4 nM
B2	23 nM
B3	4.4 nM
B4	6.6 nM
B5	20 nM
B6	1000 nM
B7	21 nM
B8	6.78 nM
B9	7.8 nM
B10	17 nM
B11	7.5 nM

The binders below were run against Recombinant human MASP2 enzyme (fragment corresponding to amino acids 297-686, C-terminal His Tag) (human, UniProt O00187 297-686) (assay: cell-based or functional assay).
Recombinant human MASP2 enzyme (fragment corresponding to amino acids 297-686, C-terminal His Tag), sequence (O00187 other isoform, or with tags, fused parts or gaps limits assumed): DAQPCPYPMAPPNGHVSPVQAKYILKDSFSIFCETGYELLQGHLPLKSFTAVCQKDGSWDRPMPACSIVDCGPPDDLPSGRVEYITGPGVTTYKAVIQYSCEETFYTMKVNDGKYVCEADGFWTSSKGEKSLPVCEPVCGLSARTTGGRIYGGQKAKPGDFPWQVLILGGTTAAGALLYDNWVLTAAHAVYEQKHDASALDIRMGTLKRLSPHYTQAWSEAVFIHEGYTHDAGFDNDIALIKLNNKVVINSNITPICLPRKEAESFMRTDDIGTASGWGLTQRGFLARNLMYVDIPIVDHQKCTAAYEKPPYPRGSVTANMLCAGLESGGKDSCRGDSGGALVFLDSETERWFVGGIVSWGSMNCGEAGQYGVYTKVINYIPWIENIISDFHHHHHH

Binder	human MASP2 IC50
B1	22 nM
B2	96 nM
B3	24 nM
B4	104 nM
B5	230 nM
B6	1000 nM
B7	64 nM
B8	116 nM
B9	1000 nM
B10	20 nM
B11	65 nM
